Values belong to the substance of their own block, whether it stands above or below them.
How the values were obtained:
D90A SOD1 (human) [1] = target: D90A SOD1 (human) (UniProt P00441); assay: SEC; zinc-reconstituted form; gel filtration chromatography; 100 µM (as dimer), 20 mM phosphate pH 7; no larger species also after more than a month at 37°C
D90A SOD1 (human) [2] = target: D90A SOD1 (human) (UniProt P00441); assay: SEC; metal-free (apo) form at time zero, before incubation; gel filtration chromatography
G93A SOD1 (human) [3] = target: G93A SOD1 (human) (UniProt P00441); assay: SEC; zinc-reconstituted form; gel filtration chromatography; 100 µM (as dimer), 20 mM phosphate pH 7; no larger species also after more than a month at 37°C
G93A SOD1 (human) [4] = target: G93A SOD1 (human) (UniProt P00441); assay: SEC; metal-free (apo) form at time zero, before incubation; gel filtration chromatography
G93D SOD1 (human) [5] = target: G93D SOD1 (human) (UniProt P00441); assay: SEC; zinc-reconstituted form; gel filtration chromatography; 100 µM (as dimer), 20 mM phosphate pH 7; no larger species also after more than a month at 37°C
G93D SOD1 (human) [6] = target: G93D SOD1 (human) (UniProt P00441); assay: SEC; metal-free (apo) form at time zero, before incubation; gel filtration chromatography
I35T SOD1 (human) [7] = target: I35T SOD1 (human) (UniProt P00441); assay: SEC; zinc-reconstituted form; gel filtration chromatography; 100 µM (as dimer), 20 mM phosphate pH 7; no larger species also after more than a month at 37°C
I35T SOD1 (human) [8] = target: I35T SOD1 (human) (UniProt P00441); assay: SEC; metal-free (apo) form at time zero, before incubation; gel filtration chromatography
I113F SOD1 (human) [9] = target: I113F SOD1 (human) (UniProt P00441); assay: SEC; zinc-reconstituted form; gel filtration chromatography; 100 µM (as dimer), 20 mM phosphate pH 7; no larger species also after more than a month at 37°C
I113F SOD1 (human) [10] = target: I113F SOD1 (human) (UniProt P00441); assay: SEC; metal-free (apo) form at time zero, before incubation; gel filtration chromatography
I113T SOD1 (human) [11] = target: I113T SOD1 (human) (UniProt P00441); assay: SEC; zinc-reconstituted form; gel filtration chromatography; 100 µM (as dimer), 20 mM phosphate pH 7; no larger species also after more than a month at 37°C
I113T SOD1 (human) [12] = target: I113T SOD1 (human) (UniProt P00441); assay: SEC; metal-free (apo) form at time zero, before incubation; gel filtration chromatography
L67V SOD1 (human) [13] = target: L67V SOD1 (human) (UniProt P00441); assay: SEC; zinc-reconstituted form; gel filtration chromatography; 100 µM (as dimer), 20 mM phosphate pH 7; no larger species also after more than a month at 37°C
L67V SOD1 (human) [14] = target: L67V SOD1 (human) (UniProt P00441); assay: SEC; metal-free (apo) form at time zero, before incubation; gel filtration chromatography
L144F SOD1 (human) [15] = target: L144F SOD1 (human) (UniProt P00441); assay: SEC; zinc-reconstituted form; gel filtration chromatography; 100 µM (as dimer), 20 mM phosphate pH 7; no larger species also after more than a month at 37°C
L144F SOD1 (human) [16] = target: L144F SOD1 (human) (UniProt P00441); assay: SEC; metal-free (apo) form at time zero, before incubation; gel filtration chromatography
T54R SOD1 (human) [17] = target: T54R SOD1 (human) (UniProt P00441); assay: SEC; zinc-reconstituted form; gel filtration chromatography; 100 µM (as dimer), 20 mM phosphate pH 7; no larger species also after more than a month at 37°C
T54R SOD1 (human) [18] = target: T54R SOD1 (human) (UniProt P00441); assay: SEC; metal-free (apo) form at time zero, before incubation; gel filtration chromatography
V87M SOD1 (human) [19] = target: V87M SOD1 (human) (UniProt P00441); assay: SEC; zinc-reconstituted form; gel filtration chromatography; 100 µM (as dimer), 20 mM phosphate pH 7; no larger species also after more than a month at 37°C
V87M SOD1 (human) [20] = target: V87M SOD1 (human) (UniProt P00441); assay: SEC; metal-free (apo) form at time zero, before incubation; gel filtration chromatography
V97M SOD1 (human) [21] = target: V97M SOD1 (human) (UniProt P00441); assay: SEC; zinc-reconstituted form; gel filtration chromatography; 100 µM (as dimer), 20 mM phosphate pH 7; no larger species also after more than a month at 37°C
V97M SOD1 (human) [22] = target: V97M SOD1 (human) (UniProt P00441); assay: SEC; metal-free (apo) form at time zero, before incubation; gel filtration chromatography

stoichiometry N (D90A SOD1 (human) [1]): 2 | stoichiometry N (D90A SOD1 (human) [2]): 2
Substance: D90A SOD1 (from UniProt P00441 8-154) (enzyme)

stoichiometry N (G93A SOD1 (human) [3]): 2 | stoichiometry N (G93A SOD1 (human) [4]): 2
Substance: G93A SOD1 (from UniProt P00441 8-154) (enzyme)

stoichiometry N (G93D SOD1 (human) [5]): 2 | stoichiometry N (G93D SOD1 (human) [6]): 2
Substance: G93D SOD1 (from UniProt P00441 8-154) (enzyme)

stoichiometry N (I35T SOD1 (human) [7]): 2 | stoichiometry N (I35T SOD1 (human) [8]): 2
Substance: I35T SOD1 (from UniProt P00441 8-154) (enzyme)

stoichiometry N (I113F SOD1 (human) [9]): 2 | stoichiometry N (I113F SOD1 (human) [10]): 2
Substance: I113F SOD1 (from UniProt P00441 8-154) (enzyme)

stoichiometry N (I113T SOD1 (human) [11]): 2 | stoichiometry N (I113T SOD1 (human) [12]): 2
Substance: I113T SOD1 (from UniProt P00441 8-154) (enzyme)

stoichiometry N (L67V SOD1 (human) [13]): 2 | stoichiometry N (L67V SOD1 (human) [14]): 2
Substance: L67V SOD1 (from UniProt P00441 8-154) (enzyme)

stoichiometry N (L144F SOD1 (human) [15]): 2 | stoichiometry N (L144F SOD1 (human) [16]): 2
Substance: L144F SOD1 (from UniProt P00441 8-154) (enzyme)

stoichiometry N (T54R SOD1 (human) [17]): 2 | stoichiometry N (T54R SOD1 (human) [18]): 2
Substance: T54R SOD1 (from UniProt P00441 8-154) (enzyme)

stoichiometry N (V87M SOD1 (human) [19]): 2 | stoichiometry N (V87M SOD1 (human) [20]): 2
Substance: V87M SOD1 (from UniProt P00441 8-154) (enzyme)

stoichiometry N (V97M SOD1 (human) [21]): 2 | stoichiometry N (V97M SOD1 (human) [22]): 2
Substance: V97M SOD1 (from UniProt P00441 8-154) (enzyme)
